Reference: doi:10.1101/2024.01.05.574393
pKd: −log10 of the molar value.

How the values were obtained:
[1] = biological target: HSPB1ACD (α-crystallin domain of HSPB1) (human); assay: native MS
[2] = biological target: HSPB5ACD (α-crystallin domain of HSPB5) (human); assay: native MS

| Substance | pKd [1] | pKd [2] |
| --- | --- | --- |
| HSPB1 C-terminal peptide (cognate peptide of HSPB1ACD) | > 4.00 | – |
| HSPB5 C-terminal peptide (cognate peptide of HSPB5ACD) | – | > 4.00 |
